Measured values taken from US20240262879.

How the values were obtained:
[1] = tested on: Control (peptide of Table 12)
[2] = tested on: Peptide 10
[3] = tested on: Peptide 5 (GPLGVRG)
[4] = tested on: Peptide 8
[5] = tested on: BI-050
[6] = tested on: BI-051
[7] = tested on: BI-052
[8] = tested on: BI-054
[9] = tested on: BI-055
[10] = tested on: BI-059
BI-059, sequence (chain, as listed by the source, chain 1 of 2): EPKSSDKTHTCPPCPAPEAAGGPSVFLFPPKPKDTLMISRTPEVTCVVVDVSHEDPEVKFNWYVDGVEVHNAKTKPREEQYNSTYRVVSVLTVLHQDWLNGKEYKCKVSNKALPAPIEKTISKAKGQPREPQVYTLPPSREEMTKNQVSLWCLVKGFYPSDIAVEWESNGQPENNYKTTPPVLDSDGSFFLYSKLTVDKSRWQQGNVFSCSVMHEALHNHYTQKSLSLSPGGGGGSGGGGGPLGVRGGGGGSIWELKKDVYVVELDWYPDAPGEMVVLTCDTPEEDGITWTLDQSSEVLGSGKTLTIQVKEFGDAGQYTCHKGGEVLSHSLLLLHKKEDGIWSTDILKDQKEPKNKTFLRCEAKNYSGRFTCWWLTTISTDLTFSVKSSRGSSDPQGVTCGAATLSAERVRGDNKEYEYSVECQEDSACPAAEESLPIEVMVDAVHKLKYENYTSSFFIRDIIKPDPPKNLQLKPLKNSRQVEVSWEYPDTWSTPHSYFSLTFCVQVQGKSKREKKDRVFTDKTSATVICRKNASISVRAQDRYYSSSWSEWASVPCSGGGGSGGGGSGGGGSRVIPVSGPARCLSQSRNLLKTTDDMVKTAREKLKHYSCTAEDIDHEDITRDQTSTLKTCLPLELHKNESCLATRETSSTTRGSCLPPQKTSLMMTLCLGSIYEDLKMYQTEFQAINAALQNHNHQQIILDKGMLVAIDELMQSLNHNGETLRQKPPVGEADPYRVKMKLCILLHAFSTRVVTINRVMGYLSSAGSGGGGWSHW
BI-059, sequence (chain, as listed by the source, chain 2 of 2): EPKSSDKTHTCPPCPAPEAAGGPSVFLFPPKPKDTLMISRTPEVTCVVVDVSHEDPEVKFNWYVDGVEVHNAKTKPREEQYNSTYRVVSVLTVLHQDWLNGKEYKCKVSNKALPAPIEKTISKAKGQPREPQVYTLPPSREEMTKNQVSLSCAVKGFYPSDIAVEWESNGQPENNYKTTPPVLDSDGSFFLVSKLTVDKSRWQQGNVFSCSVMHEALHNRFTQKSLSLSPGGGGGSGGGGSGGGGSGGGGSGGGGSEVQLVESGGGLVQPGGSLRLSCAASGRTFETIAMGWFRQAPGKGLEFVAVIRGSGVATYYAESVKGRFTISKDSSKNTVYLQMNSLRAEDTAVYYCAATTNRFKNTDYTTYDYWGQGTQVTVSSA

rmMMP2, sequence (chain, as listed by the source): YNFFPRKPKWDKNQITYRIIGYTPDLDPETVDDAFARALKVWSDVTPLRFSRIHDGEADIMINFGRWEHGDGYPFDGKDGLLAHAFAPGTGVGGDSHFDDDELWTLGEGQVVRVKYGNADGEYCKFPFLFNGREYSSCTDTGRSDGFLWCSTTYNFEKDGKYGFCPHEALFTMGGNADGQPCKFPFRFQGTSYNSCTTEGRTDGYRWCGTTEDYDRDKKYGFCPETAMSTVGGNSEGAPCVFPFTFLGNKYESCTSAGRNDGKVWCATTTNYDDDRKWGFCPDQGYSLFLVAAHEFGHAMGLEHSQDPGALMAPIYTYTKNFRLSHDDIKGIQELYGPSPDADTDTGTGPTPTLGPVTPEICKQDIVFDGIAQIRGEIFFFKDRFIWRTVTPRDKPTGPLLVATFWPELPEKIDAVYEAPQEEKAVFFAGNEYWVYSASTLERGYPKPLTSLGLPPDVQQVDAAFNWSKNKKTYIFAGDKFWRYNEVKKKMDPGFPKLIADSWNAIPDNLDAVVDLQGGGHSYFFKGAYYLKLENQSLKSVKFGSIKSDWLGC
rhMMP9, sequence (chain, as listed by the source): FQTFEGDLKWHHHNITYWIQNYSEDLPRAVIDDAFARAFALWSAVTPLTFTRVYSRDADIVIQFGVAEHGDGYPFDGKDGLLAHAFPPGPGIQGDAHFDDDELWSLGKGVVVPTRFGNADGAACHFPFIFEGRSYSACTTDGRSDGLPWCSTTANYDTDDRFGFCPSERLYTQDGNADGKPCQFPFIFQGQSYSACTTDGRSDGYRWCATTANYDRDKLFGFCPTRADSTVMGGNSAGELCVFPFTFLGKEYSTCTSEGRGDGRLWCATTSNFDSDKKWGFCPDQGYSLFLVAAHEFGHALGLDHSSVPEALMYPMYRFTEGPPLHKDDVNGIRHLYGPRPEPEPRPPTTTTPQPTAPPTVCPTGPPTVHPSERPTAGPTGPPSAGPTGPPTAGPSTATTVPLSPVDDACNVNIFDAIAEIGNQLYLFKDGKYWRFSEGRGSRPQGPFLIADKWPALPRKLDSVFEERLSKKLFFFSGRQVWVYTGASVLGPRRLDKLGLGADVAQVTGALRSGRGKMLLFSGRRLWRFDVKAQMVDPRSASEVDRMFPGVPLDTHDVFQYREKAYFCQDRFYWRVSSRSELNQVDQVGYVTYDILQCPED
rhMMP3, sequence (chain, as listed by the source): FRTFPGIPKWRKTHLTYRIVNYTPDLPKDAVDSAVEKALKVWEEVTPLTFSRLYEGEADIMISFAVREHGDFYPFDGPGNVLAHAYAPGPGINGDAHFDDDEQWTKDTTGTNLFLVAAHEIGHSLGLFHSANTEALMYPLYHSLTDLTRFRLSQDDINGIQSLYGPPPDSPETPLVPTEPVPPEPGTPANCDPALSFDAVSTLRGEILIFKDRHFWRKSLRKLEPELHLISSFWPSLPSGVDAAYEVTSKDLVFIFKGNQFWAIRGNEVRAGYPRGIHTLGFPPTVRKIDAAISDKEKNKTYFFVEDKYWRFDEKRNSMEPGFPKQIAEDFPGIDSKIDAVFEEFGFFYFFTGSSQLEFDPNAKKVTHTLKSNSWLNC
BI-055, sequence (chain, as listed by the source, chain 1 of 2): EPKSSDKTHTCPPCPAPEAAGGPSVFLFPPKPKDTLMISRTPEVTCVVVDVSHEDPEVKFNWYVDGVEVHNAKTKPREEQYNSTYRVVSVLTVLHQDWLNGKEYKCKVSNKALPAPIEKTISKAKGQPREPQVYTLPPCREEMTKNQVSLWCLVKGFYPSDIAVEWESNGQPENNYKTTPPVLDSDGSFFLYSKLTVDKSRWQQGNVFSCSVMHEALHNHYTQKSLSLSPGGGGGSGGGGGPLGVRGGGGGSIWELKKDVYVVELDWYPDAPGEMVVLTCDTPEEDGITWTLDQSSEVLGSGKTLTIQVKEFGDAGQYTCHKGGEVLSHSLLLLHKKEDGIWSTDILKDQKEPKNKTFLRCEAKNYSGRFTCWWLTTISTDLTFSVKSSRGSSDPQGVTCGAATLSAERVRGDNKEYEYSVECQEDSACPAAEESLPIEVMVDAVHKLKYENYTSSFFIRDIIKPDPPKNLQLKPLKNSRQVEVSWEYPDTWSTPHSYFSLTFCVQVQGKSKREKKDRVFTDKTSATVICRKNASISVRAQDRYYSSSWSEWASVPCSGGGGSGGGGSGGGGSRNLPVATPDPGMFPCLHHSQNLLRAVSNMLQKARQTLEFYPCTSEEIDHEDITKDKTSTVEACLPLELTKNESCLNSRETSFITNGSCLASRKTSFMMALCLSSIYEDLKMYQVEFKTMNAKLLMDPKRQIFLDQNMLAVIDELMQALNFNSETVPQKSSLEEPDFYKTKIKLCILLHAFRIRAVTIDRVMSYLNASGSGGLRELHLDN
BI-055, sequence (chain, as listed by the source, chain 2 of 2): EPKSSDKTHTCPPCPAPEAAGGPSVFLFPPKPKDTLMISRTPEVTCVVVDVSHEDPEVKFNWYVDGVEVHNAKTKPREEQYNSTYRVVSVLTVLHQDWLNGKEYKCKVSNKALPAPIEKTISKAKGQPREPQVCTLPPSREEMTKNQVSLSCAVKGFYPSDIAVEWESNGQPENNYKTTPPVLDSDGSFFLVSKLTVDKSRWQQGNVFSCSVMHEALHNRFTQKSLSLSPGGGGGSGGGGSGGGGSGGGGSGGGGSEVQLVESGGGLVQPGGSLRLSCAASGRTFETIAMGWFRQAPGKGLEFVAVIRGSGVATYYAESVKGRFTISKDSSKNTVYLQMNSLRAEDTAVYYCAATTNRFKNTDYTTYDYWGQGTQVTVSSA
BI-054, sequence (chain, as listed by the source, chain 1 of 2): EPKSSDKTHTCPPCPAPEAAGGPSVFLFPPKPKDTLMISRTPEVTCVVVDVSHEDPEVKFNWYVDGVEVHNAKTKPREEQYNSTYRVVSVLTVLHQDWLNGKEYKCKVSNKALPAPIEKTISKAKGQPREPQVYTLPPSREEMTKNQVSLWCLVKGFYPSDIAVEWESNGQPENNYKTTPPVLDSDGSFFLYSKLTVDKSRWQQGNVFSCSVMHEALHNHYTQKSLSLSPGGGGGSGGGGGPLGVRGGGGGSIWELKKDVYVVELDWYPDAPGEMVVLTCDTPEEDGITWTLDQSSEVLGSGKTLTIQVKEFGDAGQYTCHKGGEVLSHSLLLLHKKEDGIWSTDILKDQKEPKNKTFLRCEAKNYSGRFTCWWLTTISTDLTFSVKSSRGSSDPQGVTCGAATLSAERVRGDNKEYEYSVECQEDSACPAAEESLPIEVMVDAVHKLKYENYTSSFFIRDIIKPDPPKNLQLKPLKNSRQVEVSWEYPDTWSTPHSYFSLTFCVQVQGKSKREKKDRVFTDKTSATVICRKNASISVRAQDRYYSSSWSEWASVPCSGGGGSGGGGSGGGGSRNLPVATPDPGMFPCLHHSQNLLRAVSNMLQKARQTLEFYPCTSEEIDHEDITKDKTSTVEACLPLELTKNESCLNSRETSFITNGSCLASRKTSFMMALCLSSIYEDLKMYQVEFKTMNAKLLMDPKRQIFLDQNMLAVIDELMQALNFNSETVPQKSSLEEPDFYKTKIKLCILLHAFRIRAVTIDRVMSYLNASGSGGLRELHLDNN
BI-054, sequence (chain, as listed by the source, chain 2 of 2): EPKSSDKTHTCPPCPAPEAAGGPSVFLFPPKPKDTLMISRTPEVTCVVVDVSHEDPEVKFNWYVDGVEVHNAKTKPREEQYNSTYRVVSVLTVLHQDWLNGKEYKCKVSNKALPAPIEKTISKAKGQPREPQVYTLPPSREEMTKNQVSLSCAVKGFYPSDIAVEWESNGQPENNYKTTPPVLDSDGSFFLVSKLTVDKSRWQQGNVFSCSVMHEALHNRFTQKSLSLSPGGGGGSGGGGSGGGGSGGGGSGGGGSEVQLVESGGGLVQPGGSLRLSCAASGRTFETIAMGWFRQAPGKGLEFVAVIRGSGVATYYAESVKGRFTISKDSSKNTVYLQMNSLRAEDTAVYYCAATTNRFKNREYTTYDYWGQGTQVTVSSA

Row | Substance | Specific Activity [1] [pmol/min/µg] | Specific Activity [2] [pmol/min/µg] | Specific Activity [3] [pmol/min/µg] | Specific Activity [4] [pmol/min/µg] | cleavage shown by SDS-PAGE [5] | cleavage shown by SDS-PAGE [6] | cleavage shown by SDS-PAGE [7] | cleavage shown by SDS-PAGE [8] | cleavage shown by SDS-PAGE [9] | cleavage by Western blot [10]
1 | rhMMP3 | 10 | 18.3 | 14.2 | 51.2 |  |  |  |  |  | 
2 | rhMMP9 | 10 | 63.6 | 200 | 123 | efficiently cleaved | efficiently cleaved | efficiently cleaved | efficiently cleaved | efficiently cleaved | efficiently cleaved with the human tumor lysates to the level comparable to activated MMP9
3 | rmMMP2 | 10 | 98.9 | 165 | 233 |  |  |  |  |  | 
